From article PMC2680354 (Molecular cell, 2008)

B1: cortactin NtA (peptide)
chain: MWKASAGHAVSITQDDGGADDWETDPDFVNDVSEKEQRWGAKTVQGSGHQEHINIHKLRENVFQEHQTLKEKELETGPKASHGY
B2: chemically crosslinked WASP VCA (xlWASP VCA) (other)
chain: GGRGALLDQIRQGIQLNKTPGAPESSALQPPPQSSEGLVGALMHVMQKRSRAIHSSDEGEDQAGDEDEDDEWDD
modifications: chemically crosslinked to the second copy (crosslinker and site not shown)

Target: Arp2/3 complex (UniProt P61158 1-418)
Assay: fluorescence polarisation

Binder	Kd
B1	17 nM
B2	70 nM
